In the test the target is (R)-selective amine : pyruvate transaminase from Nectria haematococca, His-tagged (construct pQR1023) (Nectria haematococca). Kind of test: SEC; Superdex 200 HiLoad 16/60 gel filtration, 50 mM Tris/HCl, 0.1 M NaCl pH 7.5, 1.0 mL/min; dimer from the elution volume. Background: In gel filtration, larger molecules generally elute earlier.

Usually stoichiometry N stands for the number of molecules, sites or subunits per partner or assembly. Take “(R)-selective amine : pyruvate transaminase from Nectria haematococca, His-tagged (construct pQR1023) (enzyme)”: the stoichiometry N was 2.
